Source: patent publication US20030105303A1

Columns and labels:
[1] = molecular target: DNAX Leukocyte Associated Immunoglobulin-like Receptor (DLAIR-1), the DX26 antigen / YE01 gene product (human); experiment: flow cytometry (FACScan) on Molt4 T cell tumor cells; PE goat-anti-mouse-IgG second step
[2] = molecular target: DNAX Leukocyte Associated Immunoglobulin-like Receptor (DLAIR-1), the DX26 antigen / YE01 gene product (human); experiment: flow cytometry (FACScan) on U937 myeloid tumor cells; PE goat-anti-mouse-IgG second step
[3] = molecular target: DNAX Leukocyte Associated Immunoglobulin-like Receptor (DLAIR-1), the DX26 antigen / YE01 gene product (human); experiment: flow cytometry (FACScan) on CEM T cell tumor cells; PE goat-anti-mouse-IgG second step
[4] = molecular target: DNAX Leukocyte Associated Immunoglobulin-like Receptor (DLAIR-1), the DX26 antigen / YE01 gene product (human); experiment: flow cytometry (FACScan) on Peer T cell tumor cells; PE goat-anti-mouse-IgG second step
[5] = molecular target: DNAX Leukocyte Associated Immunoglobulin-like Receptor (DLAIR-1), the DX26 antigen / YE01 gene product (human); experiment: flow cytometry (FACScan) on HL60 promyeloid tumor cells; PE goat-anti-mouse-IgG second step
[6] = molecular target: DNAX Leukocyte Associated Immunoglobulin-like Receptor (DLAIR-1), the DX26 antigen / YE01 gene product (human); experiment: flow cytometry (FACScan) on HUT78 T cell tumor cells; PE goat-anti-mouse-IgG second step
[7] = molecular target: DNAX Leukocyte Associated Immunoglobulin-like Receptor (DLAIR-1), the DX26 antigen / YE01 gene product (human); experiment: flow cytometry (FACScan) on Jurkat T cell tumor cells; PE goat-anti-mouse-IgG second step

## DX26 monoclonal antibody
[1]
  mean fluorescence intensity: 30.7
[2]
  mean fluorescence intensity: 49.5
[3]
  mean fluorescence intensity: 92.7
[4]
  mean fluorescence intensity: 29.1
[5]
  mean fluorescence intensity: 46.9
[6]
  mean fluorescence intensity: 25.8
[7]
  mean fluorescence intensity: 47.1
